Results taken from patent US20090169562A1 (CRUCELL HOLLAND B V, published 2009).

Columns and labels:
[1] = target: T1, bovine serum albumin (BSA) (bovine, UniProt P02769 25-607); assay: phage ELISA, 1% BSA coated, anti-M13-HRP detection
T1 construct: Control antigen coated at 1% in PBS (pH 7.4); also called negative control antigen
Method: (§1) Selected single-chain phage antibodies that were obtained in the screens described above were validated in ELISA for specific enterococcal binding activity, i.e. binding to one or more enterococcal strains prepared as described supra. 2.5×10⁸ bacteria were coated overnight at 4° C. to Maxisorp™ ELISA plates in 50 μl 50 mM carbonate buffer, pH 9.6. As negative controls, the complex antigens 2% ELK and 1% BSA both in PBS (pH 7.4) were coated. Wells were washed in PBS containing 0.1% (v/v) Tween-20 and blocked with 300 μl PBS containing 2% ELK for at least 1 hour at room temperature. The selected single-chain phage antibodies were incubated for 15 minutes in an equal volume of PBS containing 2% ELK to obtain blocked phage antibodies. The plates were emptied and the blocked single-chain phage antibodies were added to the wells. Incubation was allowed to proceed for one hour at room temperature, the plates were washed in PBS containing 0.1% (v/v) Tween-20 and bound phage antibodies were detected using an anti-M13 antibody conjugated to peroxidase. Absorbance at 492 nm was measured using a spectrophotometer. As a control, the procedure was performed simultaneously without single-chain phage antibody and with a negative control single-chain phage antibody directed against West Nile virus envelope protein (SC04-374).

[2] = target: T1, bovine serum albumin (BSA); assay: phage ELISA, BSA coated
Method: as §1

T1 sequence (P02769 25-607 limits assumed): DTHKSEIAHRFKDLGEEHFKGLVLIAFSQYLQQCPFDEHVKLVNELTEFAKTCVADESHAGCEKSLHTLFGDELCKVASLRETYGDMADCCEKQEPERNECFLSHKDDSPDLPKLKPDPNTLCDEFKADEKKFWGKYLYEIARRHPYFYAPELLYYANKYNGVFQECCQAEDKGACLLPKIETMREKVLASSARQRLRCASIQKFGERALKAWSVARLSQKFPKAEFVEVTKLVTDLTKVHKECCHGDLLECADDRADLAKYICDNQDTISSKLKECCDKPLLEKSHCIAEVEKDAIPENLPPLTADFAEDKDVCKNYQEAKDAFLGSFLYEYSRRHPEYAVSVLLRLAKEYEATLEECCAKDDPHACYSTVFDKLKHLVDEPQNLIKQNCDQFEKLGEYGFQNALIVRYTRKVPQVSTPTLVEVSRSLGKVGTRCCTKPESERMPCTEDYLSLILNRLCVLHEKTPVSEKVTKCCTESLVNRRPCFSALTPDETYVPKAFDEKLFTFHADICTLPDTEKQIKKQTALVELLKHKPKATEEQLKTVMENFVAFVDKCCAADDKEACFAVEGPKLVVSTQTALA

Binder	OD492 nm [1] [OD492 nm]	binding result [2]
SC06-246 (scFv, Vl 138-245); also called single-chain phage antibody SC06-246) scFv: EVQLVESGGGLIQPGGSLRLSCAASGFTVSSDFMTWVRQAPGRGLEWVSLIYSGGKTNYADSVKGRFTISRDNSRNTLYLQMNSLRAEDTAVYYCARSVCSTISCSKLDDWGQGTLVTVSSGTGGSGGTGSGTGGSTQAVLTQPSSVSVAPGQTARITCGGNNIGRKSVHWYQQKPGLAPVLVVNDNSDRPSGIPARFSGSNSGNTATLTISRVEAGDEADYYCHVWGSSRDHYVFGTGTKVTVL	0.042	no binding
SC06-198 (scFv, Vl 133-243); also called single-chain phage antibody SC06-198) scFv: QLQLQESGPGLVKPSETLSLTCAVSGYSITSGYYWGWVRQPPGKGLEWIGSIYHTGSTYYNPSLKSRVTISVDTSKNQFSLKLNSLTAADTAVYFCASQSPAFDFWGQGTMVTVSSGTGGSGGTGSGTGGSTQSVLTQPPSVSGAPGQRVTISCTGSSSNIGTGYDVHWYQQLPGTAPKLLIYGNNNRPSGVPDRFSGSKSGTSASLAITGLQAEDEADYYCATWDDSLNGWVFGGGTKLTVP	0.049	no binding
SC05-157 (scFv, Vl 138-247); also called single-chain phage antibody SC05-157) scFv: EVQLVESGAEVKKPGESLKISCKGSGYSFTNYWIGWVRQMPGKGLEWMGIVYPGDSDTRYSPSFQGQVTISADKSISTAYLQWSSLKASDTAVYYCARRMAVAGSDAFDIWGQGTMVTVSSGTGGSGGTGSGTGGSTQAVLTQPSSASGTPGQTVTISCSGSTSNIGSHNVNWYQHLPGTAPKLLIYINNKRPSGVPDRFSGSKSGSSASLAISGLQSEDEADYYCAAWDDSLRRPVFGGGTQLTVL	0.058	no binding
SC06-241 (scFv, Vl 135-241); also called single-chain phage antibody SC06-241) scFv: EVQLVESGGGLVQPGRSLRLSCAASGFTFRSYAMYWVRQAPGKGLEWLALISHDASKMFYADSVKGRFTISRDNSKNTLSLQMNSLTIEDTAVYYCVRERTGYYGAYWGQGTLVTVSSGTGGSGGTGSGTGGSTDIQMTQSPSSLSASVGDRVTLTCRASQGIGTWLAWYQQKPGKAPKLLIYSASSLQSGVPSRFSGSGSGTDFTLSISNLQPEDFATYYCQQANSFPITFGQGTRLEIK	0.052	no binding
SC06-252 (scFv, Vl 132-241); also called single-chain phage antibody SC06-252) scFv: EVQLVETGGGLVQPGGSLRLSCAASGLTFSSYAMSWVRQAPGKGLEWVSALSGSTTFYADSVKGRFTISRDNAKNTLYLQMNSLRAEDTAVYYCARGNYYGMDVWGQGTTVTVSSGTGGSGGTGSGTGGSTSYVLTQPPSASGTPGQRVTISCSGSSSNIGKFYVYWYQQFPGAAPKLLIYSNNQRPSGVPDRFSGSKSGTSASLAISGLQSEDEADYYCAAWDGSLNGYVFGTGTKVTVL	0.044	no binding
SC06-242 (scFv, Vl 132-237); also called single-chain phage antibody SC06-242) scFv: EVQLVESGPGLVKPSETLSLTCTVSGGSISSYYWSWIRQPPGKGLEWIGYIYYTGTTNYNPSLNSRVTISADTSKNQFSLKLSSVTAADTAVYYCARGGQTAGVWGKGTTVTVSSGTGGSGGTGSGTGGSTQSVLTQPPSVSVAPGQTARITCGGYNIGRKSVHWYQQKPGLAPVLVVYDNSDRPSGIPARFSGSNSGNTATLTISGTQAMDEADYYCQAWDRGTAVFGTGTKVTVL	0.043	no binding
SC06-409 (scFv, Vl 139-249); also called single-chain phage antibody SC06-409) scFv: EVQLVQSGAEVKKPGESLKISCKGSGYSFTNYWIGWVRQMPGKGLEWMGIIYPGDSDTRYSPSFQGQVTISADKSISTAYLQWSSLKASDTAMYYCARHTQNKNGMNTFDIWGQGTMVTVSSGTGGSGGTGSGTGGSTQSALTQPPSASGSPGQSVTISCTGTSSDIGGYNYVSWYQQHPGKAPKLMIYEVSNRPPGVSNRFSGSKSGNTASLTISGLQAEDEADYYCSSYSTTTTRVIFGGGTKLTVL	0.055	no binding
SC06-077 (scFv, Vl 136-248); also called single-chain phage antibody SC06-077) scFv: QVQLVQSGAEVKKPGSSVKVSCKASGGTFSSYAISWVRQAPGQGLEWMGGIIPIFGTANYAQKFQGRVTITADESTSTAYMELSSLRSEDTAVYYCAREGGVGPAFDIWGQGTMVTVSSGTGGSGGTGSGTGGSTDIQMTQSPDSLAVSLGERATINCKSSQSVLHNSNNKNYLAWYQQKPGQPPKLLIYWASTRESGVPDRFSGSGSGTDFTLTISSLQAEDVAVYYCQQYYGSPYTFGQGTKLEIK	0.044	no binding
SC06-092 (scFv, Vl 138-248); also called single-chain phage antibody SC06-092) scFv: EVQLVESGGGLVQPGRSLRLSCTGSGFTFGDYAMSWFRQAPGKGLEWVGFIRNKAYGGTAEYAASVKDRFIISRDDSKSIAYLQMNSLKTEDTAVYYCVRREYDTGWLDYWGQGTLVTVSSGTGGSGGTGSGTGGSTQSALTQPPSASGSPGQSVTISCTGTSSDVGGYNYVSWYQRHPGKAPKLMIYDVTDRPSGVSNRFSGSKSGNTASLTISGLQAEDEADYYCSSYTSSSTSAVFGGGTKLTVL	0.047	no binding
SC06-071 (scFv, Vl 139-248); also called single-chain phage antibody SC06-071) scFv: EVQLVESGGGVVQPGRSLRLSCAASGFTFSSYGMHWVRQAPGKGLEWVAMIWSDGSNKYYADSVKGRFTISRDNSKNTLYLQMNSLRVEDTAVYYCASNYGSGSYWGGFDYWGQGTLVTVSSGTGGSGGTGSGTGGSTQSALTQPASVSGSPGQSITISCTGTSSDVGGYNLVSWYQQHPGKAPKLMIYEGSKRPSGVSNRFFGSKSGDTASLTISGLQAEDEADYYCSSYTTSSTHVFGTGTKVTVL	0.043	no binding
SC06-079 (scFv, Vl 133-242); also called single-chain phage antibody SC06-079) scFv: EVQLVESGGGLVQPGGSLRLSCAASGFTFSSYAMSWVRQAPGKGLEWVSAISGTGGSAYYADSVKGRFTISRDNSKNTVYLQMNSLRAEDTAVYYCAKGHSSGTNWGQGTLVTVSSGTGGSGGTGSGTGGSTSYVLTQPPSASGTPGQRVTISCSGSSSNIGSNFVYWYQQLPGTAPKLLIYRNNQRPSGVPDRFSGSKSGTSASLAISGLRSEDEADYYCAAWDDSLSGVLFGGGTQLTVL	0.048	no binding
SC06-087 (scFv, Vl 139-249); also called single-chain phage antibody SC06-087) scFv: EVQLVESGGGLVKPGGSLRLSCAASGFTFSSNSMNWVRQAPGKGLEWVSFISSSSTYIYYADSVKGRFTISRDNAKNSLYLQMNSLRAEDTAVYYCARESAAGISYDAFDIWGQGTMVTVSSGTGGSGGTGSGTGGSTQSALTQPASVSGSPGQSITISCTGTSSDVGGYKYVSWYQQHPGKAPKLMIYEVSNRPSGVSNRFSGSKSGSTASLTISGLQAEDEADYYCSSYTSSSTLGVFGTGTKVTVL	0.044	no binding
SC06-191 (scFv, Vl 137-243); also called single-chain phage antibody SC06-191) scFv: EVQLVESGGGVVQPGRSLRLSCVASEFTFSNYGMHWVRQAPGKGLEWVAVIWYDGSNEDYADSVKGRFTISRDNSKNTVYLHMNSLRAEDTAVYFCTRGQYSSTWFLDYWGQGTLVTVSSGTGGSGGTGSGTGGSTDIQLTQSPSTLSASVGDRVTITCRASQSISSWLAWYQQKPGKAPKLLIYKASSLETGVPSRFSGSGSGTDFTLTISSLQPEDFATYYCQQANSFPLTFGGGTKVDIK	0.044	no binding
SC06-195 (scFv, V domains shown) VH: EVQLVESGGGVVQPGRSLRLSCAASGFTFSSYGMHWVRQAPGKGLEWVAVIWYDGSNKYYADSVKGRFTISRDNSQNTLYLQMNSLRAEDTAVYYCTSYAIAATPGQGTLVTVSS VL: not shown	0.046	
SC06-050 (scFv, Vl 143-249); also called single-chain phage antibody SC06-050) scFv: EVQLVESGPEVKKPGASVKVSCEASGYNLDNYGITWVRQAPGQGLEWLGWISAYNAKTEYGQRLQGRVTMTTDTATSTAYLELRSLRSDDTAVYYCARVLGYRGGWYDEGDAFDVWGQGTMVTVSSGTGGSGGTGSGTGGSTDIQLTQSPSFLSASVGDRVTITCRASQGIRSHLAWYQQKAGKAPKLLIYAASTLQSGVPSRFSGSGSGTEFTLTISSLQPDDFAAYYCQQLNTYPITFGQGTRLEIK	0.043	no binding
SC06-089 (scFv, Vl 140-247); also called single-chain phage antibody SC06-089) scFv: EVQLVETGGGLVQPGGSLRLSCAASGFTFSSYSMNWVRQAPGKGLEWVSFISSSSSTIYYADSVKGRFTIARDNAKNSLYLQMNSLRDEDTAVYYCARPVGTGISLFHAFDIWGQGTMVTVSSGTGGSGGTGSGTGGSTQSVLTQPPSVSVAPGQTARITCGGNNIGSKYVHWYQQKPGQAPVLVVYDDSDRPSGIPERFSGSNSGNTATLTISRVEAGDEADFYCQVWDGSSDPVVFGGGTKLTVL	0.042	no binding
SC05-166 (scFv, Vl 150-259); also called single-chain phage antibody SC05-166) scFv: QVQLVQSGAEVKKPGASVKVSCKASGYTFTSYAISWVRQAPGQGLEWMGWISAYNGNTNYARKLQGRVTMTTDTSTSTAYMELRSLRSDDTAVYYCARAGLMFTAWFGELWDHGTKDNWFDPWGQGTLVTVSSGTGGSGGTGSGTGGSTNFMLTQPHSVSESPGKTVTISCTRSSGSIASYYVQWYQQRPGSSPTTVIYEDNQRPSGVPDRFSGSIDSSSNSASLTISGLKTEDEADYYCQSYDSSNQVFGGGTKLTVL	0.104	
SC06-078 (scFv, Vl 136-245); also called single-chain phage antibody SC06-078) scFv: EVQLVESGAEVKKPGSSVKVSCKASGGTFSSYAISWVRQAPGQGLEWMGGIIPIFGTANYAQKFQGKVTITADESTSTAYMELSSLRSEDTAVYYCARLSPRYYGMDVWGQGTTVTVSSGTGGSGGTGSGTGGSTQSALTQPRSVSGSPGQSVTISCTGTSSDVGGYNYVSWYQQHPGKAPKLMIYGGSERPSGVSNRFSGSKSGNTASLTISGVQAEDEADYYCSSYTSSGTLLFGGGTQLTVL	0.073	no binding
